Earlier results in paper PMC3433420.
Read-outs that look alike come from different tables or passages of the source.

Experiments:
Details in all cases: cited from earlier work
BLK (Homo sapiens) = BLK (Homo sapiens) (UniProt P51451)
SRC (Homo sapiens) [1] = biological target: SRC (Homo sapiens) (UniProt P12931)
RASA1-NC (Homo sapiens) = RASA1-NC (Homo sapiens) (UniProt P20936)
RASA1-C (Homo sapiens) = RASA1-C (Homo sapiens) (UniProt P20936)
PLCG2-N (Homo sapiens) [2] = biological target: PLCG2-N (Homo sapiens) (UniProt P16885)
PLCG2-N (Homo sapiens), sequence (P16885 527-740): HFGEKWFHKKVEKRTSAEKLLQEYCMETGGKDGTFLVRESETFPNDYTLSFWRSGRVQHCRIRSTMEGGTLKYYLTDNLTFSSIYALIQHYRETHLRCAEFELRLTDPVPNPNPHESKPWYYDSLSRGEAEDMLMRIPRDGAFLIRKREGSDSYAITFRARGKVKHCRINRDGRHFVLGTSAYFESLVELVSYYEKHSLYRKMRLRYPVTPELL

SRC (Homo sapiens) [3] = biological target: SRC (Homo sapiens) (UniProt P12931); remark: listed apart in the source
SHC1-PTB (Homo sapiens) [4] = biological target: SHC1-PTB (Homo sapiens) (UniProt P29353)
SHC1-PTB (Homo sapiens), sequence (P29353 483-583): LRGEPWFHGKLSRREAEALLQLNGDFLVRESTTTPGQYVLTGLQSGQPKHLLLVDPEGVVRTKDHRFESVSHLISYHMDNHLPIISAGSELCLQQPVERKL

PLCG2-N (Homo sapiens) [5] = biological target: PLCG2-N (Homo sapiens) (UniProt P16885); remark: listed apart in the source
SYK-NC (Homo sapiens) [6] = biological target: SYK-NC (Homo sapiens) (UniProt P43405)
SH2D1A (Homo sapiens) = SH2D1A (Homo sapiens) (UniProt O60880)
SH2D1A (Homo sapiens), sequence (O60880 1-109): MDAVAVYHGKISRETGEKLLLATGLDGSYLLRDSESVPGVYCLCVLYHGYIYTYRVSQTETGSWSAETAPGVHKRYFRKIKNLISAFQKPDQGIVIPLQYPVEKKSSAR

SHF (Homo sapiens) = SHF (Homo sapiens) (UniProt Q7M4L6)
SHF (Homo sapiens), sequence (Q7M4L6 318-423): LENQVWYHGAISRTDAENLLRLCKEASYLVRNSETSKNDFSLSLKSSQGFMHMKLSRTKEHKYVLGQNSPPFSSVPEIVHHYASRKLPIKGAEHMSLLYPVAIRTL

CRK (Homo sapiens) = CRK (Homo sapiens) (UniProt P46108)
CRK (Homo sapiens), sequence (P46108 8-123): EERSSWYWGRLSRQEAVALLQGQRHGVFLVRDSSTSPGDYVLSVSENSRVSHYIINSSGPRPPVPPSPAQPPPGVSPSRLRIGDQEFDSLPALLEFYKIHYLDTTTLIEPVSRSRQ

SYK-NC (Homo sapiens) [7] = biological target: SYK-NC (Homo sapiens) (UniProt P43405); remark: listed apart in the source
PIK3R2-N (Homo sapiens) [8] = biological target: PIK3R2-N (Homo sapiens) (UniProt O00459)
PIK3R2-N (Homo sapiens), sequence (O00459 325-721): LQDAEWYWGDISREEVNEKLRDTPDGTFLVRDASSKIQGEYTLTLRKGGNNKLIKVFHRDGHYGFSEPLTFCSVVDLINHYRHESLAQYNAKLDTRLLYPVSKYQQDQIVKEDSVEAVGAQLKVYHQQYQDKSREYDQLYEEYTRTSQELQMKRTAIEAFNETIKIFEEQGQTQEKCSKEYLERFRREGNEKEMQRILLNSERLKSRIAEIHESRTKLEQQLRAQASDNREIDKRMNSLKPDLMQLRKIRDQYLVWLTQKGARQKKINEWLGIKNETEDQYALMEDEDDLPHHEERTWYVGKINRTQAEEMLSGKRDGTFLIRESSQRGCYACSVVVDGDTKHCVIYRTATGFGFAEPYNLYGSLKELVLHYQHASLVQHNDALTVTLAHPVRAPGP

TNS3 (Homo sapiens) = TNS3 (Homo sapiens) (UniProt Q68CZ2)
TNS3 (Homo sapiens), sequence (Q68CZ2 1167-1287): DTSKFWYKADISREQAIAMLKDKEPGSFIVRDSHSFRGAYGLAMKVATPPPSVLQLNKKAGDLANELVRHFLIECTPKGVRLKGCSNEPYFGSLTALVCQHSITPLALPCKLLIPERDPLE

CRKL (Homo sapiens) = CRKL (Homo sapiens) (UniProt P46109)
CRKL (Homo sapiens), sequence (P46109 9-107): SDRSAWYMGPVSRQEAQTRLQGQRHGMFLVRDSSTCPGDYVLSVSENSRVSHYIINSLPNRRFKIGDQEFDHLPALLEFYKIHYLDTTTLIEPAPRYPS

GRB7 (Homo sapiens) [9] = biological target: GRB7 (Homo sapiens) (UniProt Q14451)
GRB7 (Homo sapiens), sequence (Q14451 426-532): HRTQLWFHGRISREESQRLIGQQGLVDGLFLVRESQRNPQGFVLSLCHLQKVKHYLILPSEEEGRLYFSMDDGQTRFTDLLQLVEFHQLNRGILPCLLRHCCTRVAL

PIK3R3-NC (Homo sapiens) = PIK3R3-NC (Homo sapiens) (UniProt Q92569)
RASA1-N (Homo sapiens) = RASA1-N (Homo sapiens) (UniProt P20936)
RASA1-N (Homo sapiens), sequence (P20936 176-446): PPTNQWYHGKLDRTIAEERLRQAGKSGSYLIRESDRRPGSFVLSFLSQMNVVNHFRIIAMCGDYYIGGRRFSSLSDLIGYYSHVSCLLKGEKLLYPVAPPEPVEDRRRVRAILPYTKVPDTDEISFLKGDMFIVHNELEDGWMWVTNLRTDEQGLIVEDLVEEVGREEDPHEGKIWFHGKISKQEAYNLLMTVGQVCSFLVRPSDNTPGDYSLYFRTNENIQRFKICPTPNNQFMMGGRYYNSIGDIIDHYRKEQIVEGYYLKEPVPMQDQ

PIK3R1-N (Homo sapiens) = PIK3R1-N (Homo sapiens) (UniProt P27986)
PIK3R1-N (Homo sapiens), sequence (P27986 328-723): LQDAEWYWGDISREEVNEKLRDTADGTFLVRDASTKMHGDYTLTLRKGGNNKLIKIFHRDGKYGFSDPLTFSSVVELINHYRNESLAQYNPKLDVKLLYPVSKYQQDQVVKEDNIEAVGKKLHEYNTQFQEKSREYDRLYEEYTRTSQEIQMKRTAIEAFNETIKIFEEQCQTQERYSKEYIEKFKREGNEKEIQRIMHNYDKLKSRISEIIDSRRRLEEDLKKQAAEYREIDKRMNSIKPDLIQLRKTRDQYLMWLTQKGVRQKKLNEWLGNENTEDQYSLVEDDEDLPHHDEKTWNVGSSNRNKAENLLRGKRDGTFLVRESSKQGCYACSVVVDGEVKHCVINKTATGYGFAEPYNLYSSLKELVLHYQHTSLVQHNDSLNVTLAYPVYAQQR

SHC1-PTB (Homo sapiens) [10] = biological target: SHC1-PTB (Homo sapiens) (UniProt P29353); remark: listed apart in the source
PIK3R2-NC (Homo sapiens) = PIK3R2-NC (Homo sapiens) (UniProt O00459)
PIK3R2-NC (Homo sapiens), sequence (O00459 325-721): as the sequence (O00459 325-721) above

SYK-C (Homo sapiens) = SYK-C (Homo sapiens) (UniProt P43405)
SLA (Homo sapiens) [11] = biological target: SLA (Homo sapiens) (UniProt Q13239)
SLA (Homo sapiens), sequence (Q13239 79-180): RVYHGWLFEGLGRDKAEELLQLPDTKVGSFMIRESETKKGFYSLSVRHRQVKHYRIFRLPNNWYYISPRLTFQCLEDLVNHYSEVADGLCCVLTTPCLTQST

YES1 (Homo sapiens) = YES1 (Homo sapiens) (UniProt P07947)
YES1 (Homo sapiens), sequence (P07947 153-260): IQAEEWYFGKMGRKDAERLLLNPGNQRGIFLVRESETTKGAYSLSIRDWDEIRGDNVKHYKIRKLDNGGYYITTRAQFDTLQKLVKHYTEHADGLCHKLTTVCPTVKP

SH2D3A (Homo sapiens) = SH2D3A (Homo sapiens) (UniProt Q9BRG2)
SH2D3A (Homo sapiens), sequence (Q9BRG2 10-119): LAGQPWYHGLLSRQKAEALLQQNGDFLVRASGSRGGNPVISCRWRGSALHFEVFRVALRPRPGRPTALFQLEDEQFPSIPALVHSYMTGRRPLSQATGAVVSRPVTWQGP

ITK (Homo sapiens) = ITK (Homo sapiens) (UniProt Q08881)
ITK (Homo sapiens), sequence (Q08881 234-343): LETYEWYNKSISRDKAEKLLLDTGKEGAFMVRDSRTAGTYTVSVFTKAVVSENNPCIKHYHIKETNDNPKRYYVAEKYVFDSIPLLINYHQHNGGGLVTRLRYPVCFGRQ

PIK3R2-N (Homo sapiens) [12] = biological target: PIK3R2-N (Homo sapiens) (UniProt O00459); remark: listed apart in the source
GRB7 (Homo sapiens) [13] = biological target: GRB7 (Homo sapiens) (UniProt Q14451); remark: listed apart in the source
ABL2 (Homo sapiens) = ABL2 (Homo sapiens) (UniProt P42684)
ABL2 (Homo sapiens), sequence (P42684 168-268): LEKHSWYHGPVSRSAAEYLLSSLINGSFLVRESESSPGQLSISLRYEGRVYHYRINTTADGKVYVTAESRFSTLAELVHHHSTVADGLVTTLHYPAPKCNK

SLA (Homo sapiens) [14] = biological target: SLA (Homo sapiens) (UniProt Q13239); remark: listed apart in the source

BLK (Homo sapiens), sequence (P51451 119-225): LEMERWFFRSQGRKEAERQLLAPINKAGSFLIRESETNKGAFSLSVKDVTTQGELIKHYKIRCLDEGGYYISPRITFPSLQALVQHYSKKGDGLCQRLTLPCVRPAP
RASA1-C (Homo sapiens), sequence (P20936 176-446): as the sequence (P20936 176-446) above
RASA1-NC (Homo sapiens), sequence (P20936 176-446): as above

Question: For …pYWDQDPPE, which apparent Kd (screen) (BLK (Homo sapiens)) is on record?
Answer: 52 nM

Question: What about the apparent Kd (screen) (SRC (Homo sapiens) [1]) of the same substance?
Answer: 196 nM

Question: What about the apparent Kd (screen) (RASA1-NC (Homo sapiens)) of the same substance?
Answer: 2000 nM

Question: What about the apparent Kd (screen) (RASA1-C (Homo sapiens)) of the same substance?
Answer: 2000 nM

Question: And the apparent Kd (screen) (PLCG2-N (Homo sapiens) [2])?
Answer: 2000 nM

Question: And the apparent Kd (screen) (SRC (Homo sapiens) [3])?
Answer: 2000 nM

Question: And the apparent Kd (screen) (SHC1-PTB (Homo sapiens) [4])?
Answer: 614 nM

Question: And the apparent Kd (screen) (PLCG2-N (Homo sapiens) [5])?
Answer: 601 nM

Question: What about the apparent Kd (screen) (SYK-NC (Homo sapiens) [6]) of the same substance?
Answer: 456 nM

Question: And the apparent Kd (screen) (SH2D1A (Homo sapiens))?
Answer: 2000 nM

Question: What about the apparent Kd (screen) (SHF (Homo sapiens)) of the same substance?
Answer: 2000 nM

Question: Which apparent Kd (screen) (CRK (Homo sapiens)) does the source give for …pYEEMRAFQ here?
Answer: 1500 nM

Question: And the apparent Kd (screen) (SYK-NC (Homo sapiens) [7])?
Answer: 1100 nM

Question: What about the apparent Kd (screen) (PIK3R2-N (Homo sapiens) [8]) of the same substance?
Answer: 49 nM

Question: What about the apparent Kd (screen) (TNS3 (Homo sapiens)) of the same substance?
Answer: 639 nM

Question: What about the apparent Kd (screen) (CRKL (Homo sapiens)) of the same substance?
Answer: 1250 nM

Question: With …pYLIPQQGFd as the substance, how does the apparent Kd (screen) (GRB7 (Homo sapiens) [9]) read?
Answer: 2000 nM

Question: And the apparent Kd (screen) (PIK3R3-NC (Homo sapiens))?
Answer: 204 nM

Question: And the apparent Kd (screen) (RASA1-N (Homo sapiens))?
Answer: 769 nM

Question: And the apparent Kd (screen) (PIK3R1-N (Homo sapiens))?
Answer: 899 nM

Question: What about the apparent Kd (screen) (SHC1-PTB (Homo sapiens) [10]) of the same substance?
Answer: 628 nM

Question: What about the apparent Kd (screen) (PIK3R2-NC (Homo sapiens)) of the same substance?
Answer: 352 nM

Question: And the apparent Kd (screen) (SYK-C (Homo sapiens))?
Answer: 934 nM

Question: And the apparent Kd (screen) (SLA (Homo sapiens) [11])?
Answer: 2000 nM

Question: Which results are given for …pYLVPQQGF?
Answer: apparent Kd (screen) (YES1 (Homo sapiens)): 1170 nM; apparent Kd (screen) (SH2D3A (Homo sapiens)): 2000 nM; apparent Kd (screen) (ITK (Homo sapiens)): 445 nM; apparent Kd (screen) (PIK3R2-N (Homo sapiens) [12]): 1950 nM; apparent Kd (screen) (GRB7 (Homo sapiens) [13]): 1800 nM; apparent Kd (screen) (ABL2 (Homo sapiens)): 2000 nM; apparent Kd (screen) (SLA (Homo sapiens) [14]): 2000 nM
